{"source": "patent US11110182B2", "about": "“Multifunctional RNA nanoparticles and methods for treating cancer and therapeutic resistant cancer” (University of Cincinnati, priority 2016, dated 2021)", "molecules": {"B1": {"name": "pRNA-HER2apt-siMED1: 3-WJ pRNA nanoparticle bearing a HER2-targeting RNA aptamer and two different MED1 siRNAs; strands p1 SEQ ID NO: 3, p2 SEQ ID NO: 4 (nucleic acid)", "chain 1": "GGACAGUGAAAGUGAGUCAAAGGAUCAAUCAUGGCCAAAGAUGUUACUUUGAGAGCCUU", "chain 2": "GGCUCUCAAAGUAACAUCUAAGGCCAUGUGUAUGUGGGGGGAGGACGAUGCGGUCUGCUGUGCUUGAUAUGCCCCAGACGACUCGCCCCCCACAUACUUUGUUGAUCCAAUGACUCACUUUCACUGUCCUU", "modifications": "2'-F modification; third strand may lack entry; pRNA-HER2apt-siMED1, p1; pRNA-HER2apt-siMED1, p2"}}, "test": "Tm value by temperature gradient gel electrophoresis (TGGE) assay", "format": "physicochemical", "procedure": "Cell culture. Human breast cancer luciferase-overexpressing BT474 and MDA-MB-231 cells were maintained in DMEM medium (Hyclone, Thermo Scientific) supplemented with 10% fetal bovine serum (FBS, Sigma) and 1% penicillin/streptomycin (Corning) at 37° C. in a humidified atmosphere with 5% CO2.^53 • Generation of pRNA nanoparticles. The two strands of pRNA were synthesized with the DNA templates, which were amplified with overlapping primers (Sigma) by PCR methods, using a T7 promoter-controlled in vitro RNA transcription system as previously described^33 (Table 1). […] The hydrodynamic diameter and Tm value of pRNA nanoparticles were determined using dynamic light scattering and TGGE assay, respectively, as previously described.^54 The AFM imaging of the pRNA nanoparticles was performed at the University of Nebraska Medical Center imaging facility as previously reported.^55 Briefly, the pRNA nanoparticles (5 μL) were deposited on APS modified mica ^56 for a total of 2 min of incubation time. […] After washing three times with PBS, the cellular uptake of pRNAs was determined using a BD LSRFortessa™ flow cytometer. • Real-time PCR. […] The expression of MED 1, TFF1, c-Myc, cyclinD1 and MMP-9 was analyzed using GAPDH as the internal reference. • Western blot analyses. […]"}
{"molecule": "B1", "values": [{"measurement": "Tm value", "value": "78±2", "unit": "°C"}]}
